From the supplement of paper PMC12855868

B1: library; numbered along this chain (parent)
chain: MAAAGGARLLRAASAVLGGPAGRWLHHAGSRAGSSGLLRNRGPGGSAEASRSLSVSARARSSSEDKITVHFINRDGETLTTKGKVGDSLLDVVVENNLDIDGFGACEGTLACSTCHLIFEDHIYEKLDAITDEENDMLDLAYGLTDRSRLGCQICLTKSMDNMTVRVPETVADARQSIDVGKTS

Variants of: B1
Test: scaled log2 fold change in cell abundance, elesclomol vs control (0 = silent mean, 1 = nonsense mean) (scaled log2 ratio); higher = higher viability under elesclomol (loss of FDX1 cuproptosis function)
Details: glucose 10 mM
[1] = with ABC1 FDX1 KO, elesclomol 5 nM, 14 days
[2] = with HEK293T FDX1 KO, elesclomol 40 nM, 11 days
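Note: variant abundance is its share of total variant reads in each endpoint sample, from next-generation sequencing of the integrated ORF PCR-amplified out of genomic DNA.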

Variant | scaled log2 fold change [1] | scaled log2 fold change [2]
F71I | -0.753 | -0.554
F71H | 1.22 | 1.17
F71K | 1.18 | 1.46
F71D | 1.1 | 1.37
F71W | 0.102 | -0.726
F71Q | 1.3 | 0.999
F71E | 1.02 | 1.5
F71A | 0.63 | 0.751
F71M | 0.0919 | 1.2
F71P | 1.18 | 1.13
F71L | -0.0155 | -0.376
F71T | 0.523 | 0.991
F71C | 0.161 | 0.0168
F71R | 1.04 | 1.38
F71Y | 0.112 | -0.0161
F71G | 1.09 | 0.752
F71N | 1.07 | 1.17
F71S | 0.983 | 1.08
F71V | 0.271 | -0.215
T81L | 0.127 | 0.885
T81H | 0.282 | -0.297
T81R | 0.181 | 0.0327
T81D | -0.11 | -0.616
T81V | 0.0264 | -0.0523
T81M | -0.27 | 0.26

Variant | scaled log2 fold change [1] | scaled log2 fold change [2]
T81E | 0.273 | 0.0361
T81Y | -0.015 | -0.0662
T81K | 0.0566 | 0.178
T81Q | -0.159 | -0.00467
T81P | 0.103 | 1.32
T81W | -0.0129 | -0.543
T81I | 0.266 | 0.81
T81F | 0.141 | 
T81G | 0.204 | -1.09
T81A | 0.0513 | 1.11
T81C | 0.0149 | -0.28
T81S | -0.82 | 1.14
T81N | 0.308 | 0.885
G76V | 0.401 | -0.808
G76K | -0.353 | -0.04
G76D | 0.21 | 1.47
G76L | 0.0165 | -0.41
G76M | 0.321 | -0.269
G76S | 0.164 | 
G76E | -0.688 | 0.0105
G76I | 0.0447 | -0.0276
G76N | -0.0936 | -0.272
G76C | 0.377 | 0.277
G76T | 0.217 | 
G76H | 0.293 | -0.385

Variant | scaled log2 fold change [1] | scaled log2 fold change [2]
G76F | -0.264 | -0.273
G76R | -0.0307 | 
G76Y | -0.241 | 0.296
G76P | 0.585 | 0.000649
G76A | -0.303 | -0.122
I72P | 0.991 | 1.28
I72V | -0.116 | -1.01
I72H | 0.00982 | -0.581
I72D | 0.34 | -0.132
I72W | 0.00502 | 1.02
I72E | -0.111 | -0.295
I72A | 0.0764 | -0.682
I72N | 0.0538 | -0.293
I72M | -0.0135 | 0.0709
I72K | 0.155 | -0.273
I72G | -0.24 | -0.556
I72Q | -0.00335 | 0.0078
I72R | -0.783 | 0.539
I72F | -0.0218 | -0.0982
I72T | -0.0209 | -0.405
I72L | -0.315 | -0.275
I72Y | -1.04 | -0.583
I72S | -0.00568 | 0.815
I72C | 0.238 | -0.937
G83F | 0.576 | 0.231

Variant | scaled log2 fold change [1] | scaled log2 fold change [2]
G83N | 0.304 | -0.106
G83C | 0.0146 | 0.00891
G83A | 0.184 | -0.672
G83P | 0.126 | -0.345
G83L | 0.777 | 1.06
G83H | 0.285 | -0.572
G83M | 0.483 | 0.859
G83D | 0.697 | 0.804
G83R | 0.756 | 0.39
G83Q | 0.455 | 0.716
G83K | 0.72 | 0.427
G83I | 0.557 | 0.712
G83E | 0.881 | 0.975
E77S | -0.974 | 0.00555
E77W | 0.139 | 0.815
E77M | -0.575 | -0.139
E77V | -0.145 | -0.226
E77Q | -0.0695 | 0.00586
E77L | 0.262 | 0.144
E77K | 0.242 | -0.341
E77C | -0.00193 | -0.0101
E77F | -0.642 | 0.94
E77N | 0.0389 | -0.504
E77Y | 0.514 | -0.542
E77R | -0.178 | -0.307

Variant | scaled log2 fold change [1] | scaled log2 fold change [2]
E77A | 0.306 | 1.06
E77D | -0.61 | -0.9
E77H | -0.0496 | -0.0091
E77I | -0.922 | -0.714
E77P | 0.108 | 
E77T | -1.24 | -0.154
E77G | 0.311 | -0.306
T80V | 0.126 | -0.0679
T80I | 0.231 | 0.056
T80Y | 0.26 | -0.203
T80G | 0.0761 | -0.279
T80H | 0.295 | 
T80Q | -0.0848 | 0.379
T80F | 0.473 | -0.712
T80W | 0.177 | 0.805
T80P | 0.231 | -0.0181
T80M | 0.0647 | 
T80C | 0.0285 | -0.291
T80S | -0.407 | 
T80A | -0.231 | 
T80D | -0.0431 | -0.13
T80E | 0.301 | -0.0351
T80L | -0.289 | -0.147
T80N | 0.128 | 
T80K | 0.183 | -0.131

Variant | scaled log2 fold change [1] | scaled log2 fold change [2]
T80R | -0.0268 | -0.512
K82C | 0.296 | 0.165
K82F | -0.531 | -0.243
K82P | -0.285 | -0.31
K82H | -0.223 | -0.0273
K82M | 0.172 | 
K82S | -0.449 | 
K82G | -0.688 | -0.137
K82N | -0.873 | 0.352
K82A | 0.109 | 
K82V | -0.0519 | 0.989
K82E | 0.0245 | -0.309
K82R | -0.619 | -0.611
K82W | 0.0928 | -0.0187
K82T | -0.0344 | 0.0849
K82Q | -0.471 | 
K82D | -0.58 | -0.293
K82I | 0.215 | 0.419
K82Y | -0.328 | -0.154
K82L | 0.0365 | -0.76
D75A | -0.423 | 0.113
D75L | 0.0705 | -0.00446
D75T | -0.752 | 0.0498
D75E | 0.271 | 0.128
D75K | -0.678 | 

Variant | scaled log2 fold change [1] | scaled log2 fold change [2]
D75C | -0.0427 | -0.175
D75Y | -0.306 | 
D75M | -0.0398 | -0.59
D75F | -0.548 | 0.355
D75H | 0.273 | 
D75Q | 0.457 | 
D75V | -0.11 | -0.372
D75W | 0.241 | -0.146
D75N | -0.329 | 0.364
D75S | -0.0315 | 
D75R | -0.271 | -0.0753
D75I | -0.502 | -0.38
N73V | 0.102 | 0.976
N73S | 0.237 | 
N73K | 0.136 | 1.39
N73I | -1.24 | 
N73C | -0.441 | -0.308
N73M | -0.526 | 0.0726
N73Q | -0.00176 | 0.207
N73W | -0.0509 | 
N73F | 0.238 | -0.334
N73P | 0.17 | -0.147
N73R | 0.219 | -0.254
N73Y | 0.218 | -0.741
N73T | -0.183 | 

Variant | scaled log2 fold change [1] | scaled log2 fold change [2]
N73E | 0.311 | 0.823
N73H | -0.0805 | -0.159
N73L | -0.0741 | 0.0359
N73D | 0.282 | -0.23
N73G | 0.582 | 0.401
N73A | 0.491 | -0.233
R74G | 0.597 | -0.839
R74I | -0.228 | 1.14
R74C | 0.324 | 0.937
R74D | 0.558 | 1.28
R74N | -1.08 | 1.31
R74E | -0.261 | 
R74P | 0.11 | 
R74M | -0.486 | 0.445
R74Y | -0.0737 | 0.186
R74F | 0.533 | -0.0248
R74S | 0.363 | 0.881
R74W | 0.234 | 
R74V | 0.486 | 
R74T | -0.0213 | -0.108
R74A | -0.255 | -0.8
R74H | -0.0392 | -0.565
R74Q | 0.323 | -0.599
R74L | 0.361 | -0.577
T78D | 0.00307 | -0.427

Variant | scaled log2 fold change [1] | scaled log2 fold change [2]
T78R | -0.905 | -0.932
T78C | -0.0788 | 
T78M | -0.54 | -0.0932
T78P | -0.0243 | -0.366
T78G | -0.0398 | 0.179
T78Y | -0.386 | -0.209
T78E | 0.171 | 2.14
T78K | 0.447 | -1.09
T78N | -0.0446 | -0.273
T78V | 0.108 | -0.249
T78W | -0.127 | -0.938
T78S | 0.0645 | 0.487
T78I | -0.229 | 
T78Q | 0.0403 | -0.00407
T78L | -0.709 | 0.584
T78H | -0.378 | 1.01
L79Q | -0.224 | -0.128
L79I | -0.0225 | -0.761
L79D | 0.287 | -0.0667
L79N | 0.26 | 0.247
L79C | 0.0853 | -0.242
L79V | 0.047 | 1.39
L79Y | -0.343 | 0.278
L79W | -0.0916 | 0.138
L79T | -0.0538 | 

Variant | scaled log2 fold change [1] | scaled log2 fold change [2]
L79E | 0.0989 | -0.00345
L79R | -0.538 | -0.117
L79M | -0.15 | -0.649
L79H | -0.594 | 0.119
L79K | 0.0188 | 0.977
L79G | 0.145 | 1.18
L79S | 0.0141 | 
L79P | 0.634 | 0.299
L79F | 0.0893 | -0.166
L79A | 0.253 | 0.232
H70Y | 0.0486 | 
H70S | 0.277 | -0.697
H70T | -0.764 | 
H70W | -0.0809 | -0.922
H70R | -0.349 | -0.0802
H70V | 0.191 | -1.13
